Laboratory results reported in article PMC10445101, “A neutralizable dimeric anti-thrombin aptamer with potent anticoagulant activity in mice”.

What was measured:
[1] = target: T1, alpha-thrombin (mouse) (Mus musculus, UniProt P19221;P19221 312-360;361-618); experiment: SPR; SPR (Biacore X100, CM5, single-cycle kinetics, 1:1 fit): PBS pH 7.4, 0.05% (v/v) Tween 20; aptamers annealed in PBS (95 to 25 C); 1 M NaCl regeneration; assay temperature not stated; settings: protein: commercial, copies: 1;1
[2] = target: T2, alpha-thrombin (human) (Homo sapiens, UniProt P00734;P00734 315-363;364-622); experiment: SPR; SPR (Biacore X100, CM5, single-cycle kinetics, 1:1 fit): PBS pH 7.4, 0.05% (v/v) Tween 20; aptamers annealed in PBS (95 to 25 C); 1 M NaCl regeneration; assay t
[3] = target: T1, alpha-thrombin (mouse); experiment: SPR; 1:1 approximation; SPR (Biacore X100, CM5, single-cycle kinetics, 1:1 fit): PBS pH 7.4, 0.05% (v/v) Tween 20; aptamers annealed in PBS (95 to 25 C); 1 M NaCl regeneration; assay temperature not stated; settings: protein: commercial; copies: 1;1; pseudo-circular, 17 bp duplex linker
[4] = target: T2, alpha-thrombin (human); experiment: SPR; 1:1 approximation; SPR (Biacore X100, CM5, single-cycle kinetics, 1:1 fit): PBS pH 7.4, 0.05% (v/v) Tween 20; aptamers annealed in PBS (95 to 25 C); 1 M NaCl regeneration; assay t

B1: M08s-1 (M08s) (structured_DNA)
DNA: AGGTCAGATGATGGGGATGGGGGGTTGGAGGAATGGATGACCT
Kd ([1]; predicted G4 with stem): 495 nM | Kd [2]: 47.2 nM

B2: TBA29 (HD22) (structured_DNA)
DNA: AGTCCGTGGTAGGGCAGGTTGGGGTGACT
Kd [1]: 22 nM | Kd [2]: 36.9 nM

B3: Pse08-08 (M08s-ds17-M08s) (structured_DNA)
DNA: GTCACTAGAGGTCAGATGATGGGGATGGGGGGTTGGAGGAATGGATGACCTCTAGTGACTGATTTACGAGGTCAGATGATGGGGATGGGGGGTTGGAGGAATGGATGACCTCGTAAATCA
Kd ([1]; pseudo-circular, 17 bp duplex linker): 4.2 nM | Kd [2]: 0.4 nM

B4: Pse08-29 (M08s-ds17-TBA29) (structured_DNA)
DNA: GTCACTAGAGGTCAGATGATGGGGATGGGGGGTTGGAGGAATGGATGACCTCTAGTGACTGATTTACGAGTCCGTGGTAGGGCAGGTTGGGGTGACTCGTAAATCA
Kd [3]: 6.3 nM | Kd [4]: 2.6 nM
